Our source for the other: relative amount of MRTF-A bound to Flag-actin (competition by co-expressed JMY) values is paper PMC6249979.

The target of this experiment is Flag-actin-WT, P60709. The experiment in a line: co-immunoprecipitation with anti-Flag magnetic beads, competition with purified MRTF-A (2-261), immunoblot quantification. The conditions noted are these: chain shown with the change; NIH 3T3 cells co-expressing Flag-actin-WT and myc-JMY constructs, serum-starved for 24 h post transfection; purified MRTF-A (2-261) added to the lysates prior …; parent: est. 0.97; read off a plot. For orientation: A western blot detects proteins with antibodies after separation by electrophoresis.

B1: myc-JMY-f.l., Q9QXM1 R961E (protein)
chain: MSFALEETLESDWVAVRPHVFDEREKHKFVFIVAWNEIEGKFAITCHNRTAQRQRSGSREQAGTPASDGSRGPGSPAARGRSEAAASATAALRSPGPRKSQAWAEGGSPRSARSLKGDPPRGPAGRGPESPLRSPARAKASPLRRSAESRDAIASATPVPPAPPVPPVSSVRVVSASGAVSEEIEVLEMVREDEAPQPLPDSEQPPSAAELESSAEECSWAGLFSFQDLRAVHQQLCSVNSQLEPCLPVFPEEPSGMWTVLFGGAPEMTEQEIDALCYQLQVYLGHGLDTCGWKILSQVLFTETDDPEEYYESLSELRQKGYEEVLQRARRRIQELLDKHKTIESMVELLDLYQMEDEAYSSLAEATTELYQYLLQPFRDMRELAMLRRQQIKISMENDYLGPRRIESLQKEDADWQRKAHMAVLSIQDLTVKYFEITAKAQKAVYDRMRADQKKFGKASWAAAAERMEKLQYAVSKETLQMMRAKEICLEQKKHALKEEMQSLQGGTEAIARLDQLESDYYDLQLQLYEVQFEILKCEELLLTAQLESIKRLISEKRDEVVYYDTYESMEAMLEKEEMAASVHAQREELQKLQQKARQLEARRGRVSAKKAYLRNKKEICIAKHHEKFQQRFQSEDEYRAHHTIQIKRDKLHDEEERKSAWVSQERQRTLDRLRTFKQRYPGQVILKSTRLRVAHSRRKSTASPVPCEEQCHSLPTVLQGQEKTEVGGGGSQLGPSQTAEPQSLVQLEDTSSEQLESTSLPPRAVVSSELPPPQSAPLLTSIDPKPCSVTIDPLPPPLPPTPPPPPPPPPPPPPPLPVAKDNGASTTAETLEKDALRTEGNERSIPKSASAPAAHLFDSSQLVSARKKLRKTVEGLQRRRVSSPMDEVLASLKRGSFHLKKVEQRTLPPFPDEDDSNNILAQIRKGVKLKKVQKEVLRESFTLLPDTDPLTRSIHEALREIKEASPESEDEEEALPCTDWEN
Regarding B1, the other: relative amount of MRTF-A bound to Flag-actin (competition by co-expressed JMY) was 0.59.
